Laboratory results published in patent publication US20220119492A1 (MEDIKINE, published 2022).
Substitutions are numbered along the chain they refer to. Ends that are not written are not given here.

Assays:
Test in all cases: competition ELISA, peptide tracer
[1] = biological target: T1, human IL-2Rβ (CD122 protein, Fc Tag) (27-239) (human, UniProt P14784 27-239)
T1 construct: range 27-239; Bought protein; also called hu-IL-2Rβ subunit; IL-2Rβ subunit; not shown: Fc tag of the bought protein
T1 sequence (looked up): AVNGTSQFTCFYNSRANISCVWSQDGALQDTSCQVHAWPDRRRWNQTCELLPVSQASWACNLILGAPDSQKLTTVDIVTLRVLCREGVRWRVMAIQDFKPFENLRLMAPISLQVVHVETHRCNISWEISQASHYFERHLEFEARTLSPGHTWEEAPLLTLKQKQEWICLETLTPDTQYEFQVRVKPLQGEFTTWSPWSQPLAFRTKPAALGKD
Experimental: (§1) Binding of Fc fusions to IL-2Rβ and IL-2Rγc were measured using a competition binding ELISA with biotinylated peptide/NeutrAvidin-HRP tracer. ELISA plate was prepared as described in Example 27.
(§2) The plate was washed 4 times with PT (1×PBS, 0.05% Tween® 20) buffer. Fifty (50) μL of IL-2R ligands serially diluted in PBT was added to appropriate wells then incubated at 4° C. for 1 hr.
(§3) At the appropriate time, the precomplexed bn-peptide/NA-HRP tracer was diluted to 2-fold its predetermined binding EC80 (typically 30 to 10 nM) without washing. fifty (50) μL of bn-peptide/NA-HRP tracer was added to each well and incubated at 4° C. for 45 mins.

[2] = biological target: T2, cynomolgus monkey IL-2Rβ subunit (cynomolgus monkey)
T2 construct: Bought protein; also called cyno-IL-2Rβ subunit
Experimental: as §1, §2, §3

[3] = biological target: T3, cynomolgus monkey Rγc subunit (cynomolgus monkey)
T3 construct: also called cyno-IL-2Rγc subunit
Experimental: as §1, §2, §3

[4] = biological target: T4, human IL-2Rγc (CD132 protein, Fc Tag) (23-254) (human, UniProt P31785 23-254)
T4 construct: range 23-254; Bought protein; also called hu-IL-2Rγc subunit; IL-2Rγc subunit; not shown: Fc tag of the bought protein
T4 sequence (looked up): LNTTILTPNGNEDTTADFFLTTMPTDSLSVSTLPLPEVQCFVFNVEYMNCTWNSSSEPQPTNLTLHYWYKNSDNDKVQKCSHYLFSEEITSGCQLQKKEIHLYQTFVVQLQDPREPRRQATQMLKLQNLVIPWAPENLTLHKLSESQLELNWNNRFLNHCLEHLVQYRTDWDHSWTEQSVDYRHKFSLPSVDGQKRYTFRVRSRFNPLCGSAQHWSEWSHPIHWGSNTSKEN
Experimental: as §1, §2, §3

Measured: IC50

T2 sequence (Q38J85 whole entry): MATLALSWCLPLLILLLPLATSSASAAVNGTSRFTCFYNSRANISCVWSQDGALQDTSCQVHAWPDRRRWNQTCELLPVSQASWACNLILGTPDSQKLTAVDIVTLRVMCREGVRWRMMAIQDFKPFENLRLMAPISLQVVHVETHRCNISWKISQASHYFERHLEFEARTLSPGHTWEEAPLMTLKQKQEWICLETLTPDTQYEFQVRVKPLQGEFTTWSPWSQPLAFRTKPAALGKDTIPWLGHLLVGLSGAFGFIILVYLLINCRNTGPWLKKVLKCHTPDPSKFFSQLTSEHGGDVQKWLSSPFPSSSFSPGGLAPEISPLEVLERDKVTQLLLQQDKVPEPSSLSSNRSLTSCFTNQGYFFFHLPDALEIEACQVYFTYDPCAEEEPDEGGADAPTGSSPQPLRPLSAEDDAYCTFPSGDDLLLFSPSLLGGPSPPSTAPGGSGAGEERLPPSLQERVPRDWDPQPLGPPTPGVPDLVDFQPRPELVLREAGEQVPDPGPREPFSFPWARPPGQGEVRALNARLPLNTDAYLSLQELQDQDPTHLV

B1: SEQ ID NO 4174 (peptide)
peptide: GGGELLVDCFKVKVGELCDLFFGGGGGSGGGGSGGGGSGGVVCQDWEGVELCWQGG
< 100 µM: all assays above

B2: IL-2Rβγc ligand BGL22 (peptide)
peptide 1: GGRYVHDCFIAQVGALCDLFLHPAPAPAPAPAPAPAPA
peptide 2: VVCQDWEGVELCWQGG
modifications: cysteine pairing not given here; also: two chains joined by non-peptidyl linker L11 (click chemistry)
notes: Made by click chemistry
< 100 µM: all assays above

B3: IL-2Rβγc ligand BGL24 (peptide)
peptide 1: B2 peptide 1 with A15D, F20A
peptide 2: VVCQDWEGVELCWQGG
modifications: cysteine pairing not given here; also: two chains joined by non-peptidyl linker L11 (click chemistry)
notes: Made by click chemistry
< 100 µM: all assays above

B4: IL-2Rβγc ligand BGL23 (peptide)
peptide 1: B2 peptide 1 with D7A, A15D
peptide 2: VVCQDWEGVELCWQGG
modifications: cysteine pairing not given here; also: two chains joined by non-peptidyl linker L11 (click chemistry)
notes: Made by click chemistry
< 100 µM: all assays above

B5: SEQ ID NO 4173 (peptide)
peptide: GGGELLVDCFKVKVGELCDLFFGGGGGSGGGGSGGVVCQDWEGVELCWQGG
< 100 µM: all assays above

B6: SEQ ID NO 4178 (peptide)
peptide: GGELLVDCFKVKVGELCDLFFGPAPAPAPAPAPAPAPAGVVCQDWEGVELCWQGG
< 100 µM: all assays above

B7: SEQ ID NO 4181 (peptide)
peptide: B6 peptide with K10R, K12R
< 100 µM: all assays above

B8: SEQ ID NO 4172 (peptide)
peptide: WYPCWIARVGELCDLEEGPVNRGGGGGSGGVVCQDWEGVELCWQGG
< 100 µM: all assays above

B9: SEQ ID NO 4170 (peptide)
peptide: GGGELLVDCFKVKVGELCDLFFGGGGGSGGGGSGGGGSGGGGSGGVVCQDWEGVELCWQGG
< 100 µM: all assays above

B10: SEQ ID NO 3177 (peptide)
peptide: GGAYVHDCFIAQVGDLCDLFLHGG
< 100 µM: [1] | [2]

B11: SEQ ID NO 3180 (peptide)
peptide: GGRYVADCFIAQVGDLCDLFLHGG
< 100 µM: [1] | [2]

B12: SEQ ID NO 3179 (peptide)
peptide: GGRYAHDCFIAQVGDLCDLFLHGG
< 100 µM: [1] | [2]

B13: SEQ ID NO 3200 (peptide)
peptide: GGRYVHDCFIGAVGDLCDLFLHGG
< 100 µM: [1] | [2]

B14: SEQ ID NO 3182 (peptide)
peptide: GGRYVHDCFIAQVGDLCDLFLAGG
< 100 µM: [1] | [2]

B15: SEQ ID NO 3186 (peptide)
peptide: GGRYVHDCFIAQVGDLCALFLHGG
< 100 µM: [1] | [2]

B16: SEQ ID NO 3183 (peptide)
peptide: GGRYVHDCFIAQVGDLCDLFAHGG
< 100 µM: [1] | [2]

B17: SEQ ID NO 3178 (peptide)
peptide: GGRAVHDCFIAQVGDLCDLFLHGG
< 100 µM: [1] | [2]

B18: SEQ ID NO 3202 (peptide)
peptide: GGAYVHDCFIGQVGDLCDLFLHGG
< 100 µM: [1] | [2]

B19: SEQ ID NO 3185 (peptide)
peptide: GGRYVHDCFIAQVGDLCDAFLHGG
< 100 µM: [1] | [2]

B20: SEQ ID NO 3204 (peptide)
peptide: GGRYVHDCFIGQVGDLCALFLHGG
< 100 µM: [1] | [2]

B21: SEQ ID NO 4180 (peptide)
peptide: VDCFKVKVGELCDLFFGPAPAPAPAPAPAPAPAGVVCQDWEGVELCWQ
< 100 µM: all assays above

B22: SEQ ID NO 4176 (peptide)
peptide: GGRYVHDCFIAQVGDLCDLFLHPAPAPAPAPAPAPAPAGVVCQDWEGVELCWQGG
< 100 µM: all assays above

B23: SEQ ID NO 4183 (peptide)
peptide: B22 peptide with V13A
< 100 µM: all assays above

B24: SEQ ID NO 4182 (peptide)
peptide: B22 peptide with D18A
< 100 µM: all assays above

B25: SEQ ID NO 4184 (peptide)
peptide: B22 peptide with L16A
< 100 µM: all assays above

B26: SEQ ID NO 4185 (peptide)
peptide: B22 peptide with A11G
< 100 µM: all assays above

B27: SEQ ID NO 4175 (peptide)
peptide: GGRYVHDCFIAQVGDLCDLFLHGGGGSGGGGSGGGGSGGGGSGGVVCQDWEGVELCWQGG
< 100 µM: all assays above

B28: IL-2Rβγc ligand having SEQ ID NO: 4171 (peptide)
peptide: GGGELLVDCFKVKVGELCDLFFGPAPAPAPAPAPAPAPAGVVCQDWEGVELCWQGG
< 100 µM: all assays above

B29: SEQ ID NO 4177 (peptide)
peptide: GGELLVDCFKVKVGELCDLFFGPAPAPAPAPAPAPAPAPAPAPAVVCQDWEGVELCWQGG
< 100 µM: all assays above

B30: SEQ ID NO 4179 (peptide)
peptide: LVDCFKVKVGELCDLFFGPAPAPAPAPAPAPAPAGVVCQDWEGVELCWQ
< 100 µM: all assays above
